Results on one molecule are retold here after US20040260058A1 (published 2004).

Holding throughout (test): yeast two-hybrid screen; number of positive colonies with this interactor
For experiment [1], the target named is Nel (rat, UniProt Q62918). The method, then: (§1) A yeast two hybrid screen was carried out in order to identify A proteins which interact with L119. The entire coding region of the L119 cDNA was amplified in a polymerase chain reaction (PCR) and cloned into vector pPC86. The oligonucleotide primers having the sequences SEQ ID NO: 35 and 36 were used to do this. A 50 μl PCR mixture was prepared from 5 μl of 10× cloned Pfu buffer (Stratagene); 2 μl of DNTP mixture (5 mM; Cat. No. 1969064, Roche Diagnostics GmbH, Mannheim, Germany); in each case 2 μl of the abovementioned primer pairs (stock conc. 10 μM); 100 ng of rL119 cDNA template, 35 μl of H₂O and 1 μl of Pfu turbo DNA polymerase (Stratagene), and, after it had been incubated at 94° C. for 3 minutes, 28 PCR cycles were then carried out in accordance with the following temperature programm: 1 min of primer annealing at 56° C., 1 min of strand extension at 72° C. and 1 min of DNA double-strand melting at 94° C., together with a concluding extension step of 7 min at 72° C. The resulting PCR products were gel-purified, cut with the restriction enzymes SalI and NotI and cloned into the corresponding restriction cleavage sites of pPC86. The DNA construct obtained in this way encodes a protein in which the Gal4 DNA-binding domain is fused to the L119 protein. The yeast strain Y190 (Flick JS and Johnston M (1990) Mol. Cell. Biol. 10, 4757-4769; Harper J et al. (1993) Cell 75, 805-816) (from Life Technologies) was transformed with this construct. The resulting yeast strain was transformed with a rat brain cDNA library (obtained from cortex and hippocampus RNA, following maximal electroconvulsive shock (MECS) (Antony Lanahan and Paul Worley)) in the vector pPC86 (from Life Technologies), and 3×10⁶ transformants were plated out. After 3 to 5 days of growth at 30° C., colonies having a diameter of more than 2 mm were isolated and subjected to X-Gal staining (protocol: ProQuest™ Two-Hybrid System, Cat. Series 10835, Life Technologies) . […] The respective cDNA from these colonies was amplified using vector-specific primers and the-amplicon was sequenced (protocol: ProQuest™ Two-Hybrid System, Cat. Series 10835, Life Technologies). The sequence analysis gave 8 different putative interacting proteins (Table 1): […]
Chain of Nel (Q62918 whole entry): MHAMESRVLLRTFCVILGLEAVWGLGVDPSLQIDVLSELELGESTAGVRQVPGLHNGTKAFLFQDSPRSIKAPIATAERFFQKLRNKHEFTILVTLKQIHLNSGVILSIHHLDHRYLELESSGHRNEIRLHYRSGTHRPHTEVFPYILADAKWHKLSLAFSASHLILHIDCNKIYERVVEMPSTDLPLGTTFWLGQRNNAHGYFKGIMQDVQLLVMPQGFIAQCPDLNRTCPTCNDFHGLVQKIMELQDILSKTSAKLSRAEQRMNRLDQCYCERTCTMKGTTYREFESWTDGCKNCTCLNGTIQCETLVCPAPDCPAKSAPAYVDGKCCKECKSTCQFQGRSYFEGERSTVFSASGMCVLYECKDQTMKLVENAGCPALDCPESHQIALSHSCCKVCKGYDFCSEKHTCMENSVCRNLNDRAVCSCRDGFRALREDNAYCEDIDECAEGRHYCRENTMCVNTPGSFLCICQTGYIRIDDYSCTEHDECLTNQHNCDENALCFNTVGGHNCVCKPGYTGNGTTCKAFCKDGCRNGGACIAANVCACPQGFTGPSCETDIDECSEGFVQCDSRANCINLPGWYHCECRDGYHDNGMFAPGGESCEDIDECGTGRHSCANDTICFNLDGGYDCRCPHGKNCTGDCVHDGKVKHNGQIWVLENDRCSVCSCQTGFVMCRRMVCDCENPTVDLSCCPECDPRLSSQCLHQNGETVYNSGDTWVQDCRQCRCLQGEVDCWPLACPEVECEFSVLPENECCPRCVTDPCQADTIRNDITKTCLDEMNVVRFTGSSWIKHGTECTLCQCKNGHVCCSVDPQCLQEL

Experiment [2] addresses Matrilin-2 (rat, UniProt A0A8I6GJR4 24-910). As to the method: as §1
In experiment [3] the target is Notch 4 (rat). The method, then: as §1
Experiment [4] concerns the target Laminin alpha-4 chain (rat). As to the method:
as §1

Chain of Matrilin-2 (A0A8I6GJR4 entry or part of it): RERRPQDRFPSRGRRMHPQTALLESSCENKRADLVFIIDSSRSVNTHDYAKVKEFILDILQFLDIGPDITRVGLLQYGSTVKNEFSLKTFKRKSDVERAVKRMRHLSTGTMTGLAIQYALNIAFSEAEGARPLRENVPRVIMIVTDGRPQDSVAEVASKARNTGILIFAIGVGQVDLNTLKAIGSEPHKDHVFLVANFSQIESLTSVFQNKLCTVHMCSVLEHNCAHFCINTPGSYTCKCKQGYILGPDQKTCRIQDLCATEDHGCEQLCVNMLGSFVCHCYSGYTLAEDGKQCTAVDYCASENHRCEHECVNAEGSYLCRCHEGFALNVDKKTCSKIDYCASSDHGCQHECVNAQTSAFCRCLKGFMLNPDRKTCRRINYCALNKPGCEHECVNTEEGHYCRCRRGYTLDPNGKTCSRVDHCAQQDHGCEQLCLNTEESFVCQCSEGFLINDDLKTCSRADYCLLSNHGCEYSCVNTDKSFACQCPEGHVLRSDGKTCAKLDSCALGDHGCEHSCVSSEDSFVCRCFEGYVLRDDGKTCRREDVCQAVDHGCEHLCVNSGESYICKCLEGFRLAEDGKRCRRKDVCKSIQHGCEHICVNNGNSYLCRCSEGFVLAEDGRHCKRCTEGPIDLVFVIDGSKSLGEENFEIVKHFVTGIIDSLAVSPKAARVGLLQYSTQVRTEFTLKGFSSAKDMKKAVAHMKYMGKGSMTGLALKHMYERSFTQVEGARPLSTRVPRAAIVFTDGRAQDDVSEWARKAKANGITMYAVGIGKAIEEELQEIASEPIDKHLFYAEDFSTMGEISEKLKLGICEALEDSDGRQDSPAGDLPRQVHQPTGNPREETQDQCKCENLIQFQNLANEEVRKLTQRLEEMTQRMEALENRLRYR

B1: Gal4 DNA-binding domain fused to the L119 protein (yeast two-hybrid bait) (other)
chain: MKLLSSIEQACDICRLKKLKCSKEKPKCAKCLKNNWECRYSPKTKRSPLTRAHLTEVESRLERLEQLFLLIFPREDLDMILKMDSLQDIKALLTGLFVQDNVNKDAVTDRLASVETDMPLTLRQHRISATSSSEESSNKGQRQLTVSMEKWTAWEPQGADALRRFQGLLLDRRGRLHCQVLRLREVARRLERLRRRSLAANVAGSSLSAAGALAAIVGLSLSPVTLGASLVASAVGLGVATAGGAVTITSDLSLIFCNSREVRRVQEIAATCQDQMRELLSCLEFFCQWQGRGDRQLLQSGRDASMALYNSVYFIVFFGSRGFLIPRRAEGATKVSQAVLKAKIQKLSESLESCTGALDELSEQLESRVQLCTKAGRGHNLRNSPDLDAALFF
notes: also called L119 bait
Turning to B1, the “# Frequency” value stood at 5 in experiment [1], 1 in experiment [2], 3 in experiment [3] and 1 in experiment [4].
